# Source: the domain aggregation screens of Martell et al. (2025)
# Assay: soluble fraction after stress (log2 fold change); higher = more stays soluble; pooled small domains, quantitative proteomics
# Settings: stress: 75 degC
# 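Further: 20 min heating vs room temperature control held 20 min.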
row,Sequence,soluble fraction (log2)
1,HMHDRRSGKVKWYSDRKGYGFIDLDGGEVFIHRSALIAFGALRLQAEDIITITVRETDRGLVVDQLFGIER,-1.66
2,HMHEAILNQIRNEELMLYIGELSDAQQDVILLKYFHQMTFKEIAESFSIPISTVKTRHTAALKKLSTLWK,-0.36
3,HMHESLAEVAARKLRALIVTGELAPGERVTEAGLTDLLEISRTPAREAIRILSSEGLLVVFPNRGAEVV,-0.94
4,HMHEYSDIEHRILDAAREVFIRKGYDSATMGDIALLAGMSRTSVNYYFRNKERLFEAIFEEII,-1.91
5,HMHFDQILAHAMDERGMNAVQLASLTGLSSGAISRYLAGDRQPTVYSIQQIAKALGVSADYLVG,-1.19
6,HMHGEAEFLDATAVVMEKLNPGGLVKIKGEIWQAVSKDGHTIQEGEKVRVFERQGITLLVGHF,-0.876
7,HMHGTIHSAAYGGDIEAVKKFLAAGADVNANGGGRTPLDLAIQVKNTEIADLLRKHGGKTGDELKA,0.547
8,HMHGYLSDPAARLIRARRKTLSIRITQEGNLEIRAPLGMPKGEIEAFLKEKAQWIETHRAKVLAEYA,-2.84
9,HMHHDQQQITAELARIARNGLPGLTADNAIISRLDALNLLINIHDDRGADATPLRGLLPAIADELLRLT,0.056
10,HMHHIDTAWFRGKMREHRLTQEAVGQAIGLERSMVSKIIKGTVSFNARKASAWAQLLRVSESEILERVGI,-2.58
11,HMHHIDYKQLRRINPVAARRAVLDYLESTGGNITKTAQVFSINRSVVYDILKKQASGDLSDRLRIP,-2.04
12,HMHIDQVIRERRLALGLTQEELANKIGVSAPAVSKWEKRVSYPDITLLPALARILGTDVNTLLTFS,-1.08
13,HMHIVQEGDSLYGIARQYRITVEELRSLNALETADVIVPYQKLYV,-0.851
14,HMHKPLRILVYEELRMLIMTGQIKPGTRMMEIDLAESMGVSRTPVREAIRQLEKDNLVTIEPRRGAYVSD,-2.71
15,HMHKYQVGETVYYTSPTFGRAAATGSYIVVKLLPSEGDDYQYRIKSSGEAFERVAKESQLDR,-0.57
16,HMHLIPRESTYEIDGRRFVVDSVNLDFGKVSLQDITFRNATGFPIFRSESIEFMRRLVEISEAQRIAEL,-0.0447
17,HMHLPDNAVSIISELKMTPEEVLELIGKLPHDFLFLPYSQRKKIIVDLIPNKDYKLLMSLIKKFML,-1.62
18,HMHLTRYQYKVETEQEAVGLKELSSVHDLQIKENEATFQADSDAIDEILKTLLLYGVKKLEATPPTLED,-0.211
19,HMHMSLTEKYKELTDLAVSAGVQNLNVREQDGVLYVDGDASGAVKQQLWDTYGKLDPDYTSGDLVLNI,0.279
20,HMHNSPSPVATTILRFLQPVRAFVGDTEDMRTFGPFLREDVAMVPASQAKNLIRSGHAVEINP,-0.0107
21,HMHNSQTIIDNIKRIANEQNISLSKLAVISGLGKNTITSMTAKTNIKIETLTAIAKSLNVSIHDLTGE,-2.64
22,HMHPDHRTATVPDAAAGRRFDAVLAELFPQFSRSKLTTWIKSGEVLLNGEVPRPRDAVVGGETVSLNVVL,-0.554
23,HMHPMVEAYLADLDRALSGSDPREHAETMSAVREHLADAIAPDATAEQVRHALDELGPVEAIAAG,0.0321
24,HMHPQISVEGVLPLKEAVEFVEREIISHAYSRYRATREVARHLGIDPSTVLRKAAKYGITVEPGKN,-1.07
25,HMHPRDREENKYLLLRGERIYEESIGEKRLYVEAALHKYEKALSSYDTGLIDEAKEEFKKFLEEIEEA,-0.271
26,HMHPVEPDDPDQHILFQHLRGQDQVHIDALIRLSGWTADKVSSTLLFMELQGLVKQLPGMYYALE,-0.806

row,Sequence,soluble fraction (log2)
1,HMHQAADFAGFITFNKDGVEQFSFGKYKNQTVVSVLEKDPGYYSWIQNADFPLYTKKILTAIRLAM,-1.06
2,HMHQALLEQSAEHAQQVKAYELLLTAERALDEENTEAFLSAMKSLKPLAENLDAKGKALYQELLPFVTEA,0.485
3,HMHQAVTVTKPARLFTGPDGKGVVRSLDVGMMLYPTGEKQGMMWEVEDELGNKGWVSSTLLELS,0.0637
4,HMHSEEAALLHRYIDSLEEPQHTVVVMRDIGGYSFEEIASVVQLKEAHIWMILSRARRKLRELYIKTMDHH,0.0533
5,HMHSFFGDNIKKLRTAKKMSQEQLADIFGITKAGISYWETGRSEPNFATVQKLADFFGVTTSDLLGEA,-0.43
6,HMHSFGLHVRNLRKKSNLTLSQLSNASGLSLSAISKIENNQISPSFINLIRLAEGLKMHIADLVTVK,-2.2
7,HMHSGFHSAILDVDRAVKEGKTLYEALNKYPYIFDETFRSLVRAGEASGELPSILSKLALYLEEQSK,-2.04
8,HMHSLLDDIPNVGEKRKRILLTHFQSLEEIKAATVEELERLPQINRKAAESIYTFFHSQPIR,-0.735
9,HMHSRLEDIPGIGPRRRAMLLRHFGGLAELKAAGVEEIARVEGINMALAQRLWRALHGVPDPT,-0.641
10,HMHSVIALTIPADYAGLRLDQALAKLLPNWSRSRLQTWIAENRVILDGQITTIKQKVWGNELIQISPQD,-1.67
11,HMHTDQVLVMTRAVGQGEIVRNTDVGLTSVAVDRAVTTIPASQLDEIVGRHALVDLSAGQLLGSHSVGA,0.109
12,HMHTNNALWAIADDMRARKDDGEFDTYREGYKWAANNIVKEGIHITAIKLEKAYHKAKSEGKV,-0.139
13,HMHVSIAENIRRIRTQHDMTQEEFGKVAAVSAMAVSQWENGRAVPRMGAVQRIADYFNISKGEVID,-0.699
14,HMHWDIAQADAKQEVMDSSDDKEAIERIQANMFKDPKDHDQEYANKILNDMIDEIKEKGLEAMQHKFAQE,-0.443
15,HMHYELTPDAEKQLSALGLTAELVERILEEANDRRPIPGTNRTVYSLHGYSVEFSNTNHKIVSVRKG,-0.882
16,HMIAAPFVVKDIRVDGVQPATGEAIISSLPVKVGQTATDADVSNVVRQLFSLNRFQNVQATREGNTLVIKV,-0.0493
17,HMIAGHLQIKNDYYYMVLSYTDSDGKRKQPWIPTGLPMKGNKKRAEKMLIETRQTYVPPVSSG,-3.41
18,HMIAIGDDARLDDAARFFRIAEDSYAAGDYRKSKENYIEARKLYAELGDHEKVNLINSKISAIDSIT,0.0977
19,HMIAVIKPSATAEQKAGLVDWIRGQGIDVHISEGHDYTVLGLIGDTSKIDMDLIASLDIVDSVKRVA,-0.338
20,HMIDAHTTLLAKRLESKGFLALTDKSSAEEIYEEFGISKKAFKKALGALYKERLVRIGEDGVVWM,-1.67
21,HMIDDPTAVILRLVSEKQVIRRDDVVKALSVTPQKAYRLLKTMTTGGLLTRSGARRTTVYGLPDARER,0.223
22,HMIDEKVQAADKSIEIGNLSPLKGLVTDDEMHELEKLFEKVMALKDFEVNDVGAGRKYIEAYVSFFKFAEG,-0.418
23,HMIDELNVGDIRFYLNRYGKEIQIEIIRIGDDGSVYARTMADNALFRVPEARLKNIGEKVPAEEVQRG,-1.42
24,HMIDFTHEDIERLWNAIVHYVPERQKSDMAIDFIKSLEDIGVEHDEIKASAEYDPKLEEAINTVY,-0.424
25,HMIDIDNLEKAAILLLSMGTEAAAKVMQKLSRDEVQRLISKMASLSGVSSIEAKWTLQQFFNQYREQSG,-0.786
26,HMIDLSELINKTGSAYTNLRPSGTAVIGDDRVDVVTEGTFVEKDRPVKVVAVEGQRVVVREVE,0.209

row,Sequence,soluble fraction (log2)
1,HMIDMQIDTARFGTLGVDDDKIITFPKGLPGFEDERRFFLMDHSGSSKIKWLHSADNPGLALV,-0.0491
2,HMIDVGSKIRSLRKSKNISISTLAKNSDLSTGLISQIERNMVVPSIVAMWKISKALDINIGYFFE,-3.13
3,HMIEDMQQYIKEIRQMVSGRLDMTRNLEDEEIRDTIAELVAEESRKQYMTLTEKREVIEGVFNSMR,-0.0831
4,HMIEEIAVPEILGMQEEEAKAKIEGLGLVFNVTDRVKSNEYEKGEVMYQSVGPDDTTVKSGYPINVTISEG,0.196
5,HMIEEIPYSQFMSMLEEGKIDKAEIYQDSIIFSTKPDEQGKAGYYSIAYMKDNVLADRLYDAGVEFTPII,0.293
6,HMIEGEQVRLLRLLERQEGGMLPLGDKSPASDILLLTGMSKKTFKMAVGALYKAQMITMTPTSIKLVK,-3.18
7,HMIEGETPEQTMERVSKDPEIVQILQDPVMQGILAQARENPAALQDHMKNPEVYKKINMLIAAGVIRT,0.278
8,HMIEGSSDWKPNMILDDGGDLTKIIHEEYQDLLDDIRGLSEETTTGVLRLYEMEKENSLAVPAINVND,0.171
9,HMIEKGSDALEKELRKNNLSINEFLTNKNIDIILDELKLKDIDDLYVNIALGKYTPNQIIKIVNK,-0.0502
10,HMIELEGVISSVLAGTMFKVKLRGNGHEVLAHISGKMRKKFIRLVIGDAVKIEMSPYDMDKARIVYRI,-0.318
11,HMIELTTDYKKRVVEALVSARENYSGSDSDFARKWSIDKTVYSRLKKGYQEGLLSVGKYIELGMELNVSSR,-1.87
12,HMIENITIELNKKALALDFELNKDLPEGVLETIPTLVSLMVRFDPLTVSYHFLRDYIDALLESNLNVDL,-0.0886
13,HMIENMQEYVRHIRAAVSDRLDLTREVEDDEIREVISQIVAEESRQNYLSLGERQTVIETVFNSMR,-0.339
14,HMIERLVEFVHTLRHSGVRVSMAEAMDAAEALRHTPITERQIFKTALQSVLVKEHQDIPAFDAAFERFFL,-3.04
15,HMIESLKGILHKKDPTIAIIDVGGVRLSVNITLSTYEKLEEINSSIELLTYFNVREDAMELYG,-0.468
16,HMIETIIGAEGKVLETIDNFNQKGVVALAGKEWTARSADASIIPEGAKVSVVEISGVKLIVTQN,0.251
17,HMIETLGDATFKRLKAMILDGTLEPGTRLSEKKFADHLGVSRTPVREAIGQLVSEGLAKRSAGSAPVVSS,-0.0859
18,HMIFSIIPGQIRLTKMEIADGYLVLYGFTPSKEIYNLHLNPALKSIFTSSETSFIPVSGGLKFMSTNKL,-2.35
19,HMIGAKVLVNGQLHRDSYGEGPGQTESNATRLVNYINMKGSHPYHVTTLDGGWRGWVTADSVQV,0.139
20,HMIGDNNELFQKAQLTPREKEVALLLLQGETNSDIAKILYVGLSTVKKHISSIFEKTKVKSRTEFISKVR,-1.6
21,HMIGDYALILNIKGGSDWYLGNRVELLFTDGTSKIVTTDKDYNAKKDMVPTQIVTYKVNDNGEYSLKALPT,-2.13
22,HMIGEKLKEIREKTGMNKKEFAQYLGLKYTTYNNYETEAREPASDFLILISTKFDVSIDYLLGLQ,-1.15
23,HMIGIEALAGEIDRVRQVLTGGGGLSDVQLFSQLKALNEIKAALGASPDPRAPELVQRVDQLLEAAFRS,0.395
24,HMIGIGSDVPNKLKPAIYSFGLVAVGEKSVIPDGVQIGKNTAVSGVTSKEDYPDGVLESGETLIKA,0.186
25,HMIGKLTSSKLAAIHKMKTNELLAHFTEKGFLNINDAGKYILTQQGKDVGAEFKTSQYGGYFLWPENIE,-0.666
